Measurements published in patent US20210032291A1, “Compstatin Analogs With Improved Pharmacokinetic Properties” (The Trustees of the University of Pennsylvania, priority 2011, published 2021).
Bridge positions count the residues as written; N and C are the ends. Square brackets hold non-standard residues; d marks the D form. Ends that are not written are not given here. Trp(1-Me) = Cn1cc(C[C@H](N)C(=O)O)c2ccccc21; NMeI = CC[C@H](C)[C@H](NC)C(=O)O; Orn = NCCC[C@H](N)C(=O)O; Sar = CNCC(=O)O

B1: Peptide 20: Tyr-Gly-[Cys-Val-Trp(Me)-Gln-Asp-Trp-Sar-Ala-His-Arg-Cys]-mIle-NH2 (peptide)
peptide: YGCV[Trp(1-Me)]QDW[Sar]AHRC[NMeI]-NH2
modifications: disulfide 3-13; N-terminus assumed
SMILES: CC[C@H](C)[C@@H](C(N)=O)N(C)C(=O)[C@@H]1CSSC[C@H](NC(=O)CNC(=O)[C@@H](N)Cc2ccc(O)cc2)C(=O)N[C@@H](C(C)C)C(=O)N[C@@H](Cc2cn(C)c3ccccc23)C(=O)N[C@@H](CCC(N)=O)C(=O)N[C@@H](CC(=O)O)C(=O)N[C@@H](Cc2c[nH]c3ccccc23)C(=O)N(C)CC(=O)N[C@@H](C)C(=O)N[C@@H](Cc2c[nH]cn2)C(=O)N[C@@H](CCCNC(=N)N)C(=O)N1
B2: Cp40 (6Asn) (peptide)
peptide: [dY]ICV[Trp(1-Me)]QNW[Sar]AHRC[NMeI]-NH2
modifications: disulfide 3-13; N-terminus assumed
SMILES: CC[C@H](C)[C@H](NC(=O)[C@H](N)Cc1ccc(O)cc1)C(=O)N[C@H]1CSSC[C@@H](C(=O)N(C)[C@H](C(N)=O)[C@@H](C)CC)NC(=O)[C@H](CCCNC(=N)N)NC(=O)[C@H](Cc2c[nH]cn2)NC(=O)[C@H](C)NC(=O)CN(C)C(=O)[C@H](Cc2c[nH]c3ccccc23)NC(=O)[C@H](CC(N)=O)NC(=O)[C@H](CCC(N)=O)NC(=O)[C@H](Cc2cn(C)c3ccccc23)NC(=O)[C@H](C(C)C)NC1=O
B3: Peptide 2: Gly-Ile-[Cys-Val-Trp(Me)-Gln-Asp-Trp-Sar-Ala-His-Arg-Cys]-mIle-NH2 (peptide)
peptide: GICV[Trp(1-Me)]QDW[Sar]AHRC[NMeI]-NH2
modifications: disulfide 3-13; N-terminus assumed
SMILES: CC[C@H](C)[C@H](NC(=O)CN)C(=O)N[C@H]1CSSC[C@@H](C(=O)N(C)[C@H](C(N)=O)[C@@H](C)CC)NC(=O)[C@H](CCCNC(=N)N)NC(=O)[C@H](Cc2c[nH]cn2)NC(=O)[C@H](C)NC(=O)CN(C)C(=O)[C@H](Cc2c[nH]c3ccccc23)NC(=O)[C@H](CC(=O)O)NC(=O)[C@H](CCC(N)=O)NC(=O)[C@H](Cc2cn(C)c3ccccc23)NC(=O)[C@H](C(C)C)NC1=O
B4: Peptide 7: Trp-Ile-[Cys-Val-Trp(Me)-Gln-Asp-Trp-Sar-Ala-His-Arg-Cys]-mIle-NH2 (peptide)
peptide: WICV[Trp(1-Me)]QDW[Sar]AHRC[NMeI]-NH2
modifications: disulfide 3-13; N-terminus assumed
SMILES: CC[C@H](C)[C@H](NC(=O)[C@@H](N)Cc1c[nH]c2ccccc12)C(=O)N[C@H]1CSSC[C@@H](C(=O)N(C)[C@H](C(N)=O)[C@@H](C)CC)NC(=O)[C@H](CCCNC(=N)N)NC(=O)[C@H](Cc2c[nH]cn2)NC(=O)[C@H](C)NC(=O)CN(C)C(=O)[C@H](Cc2c[nH]c3ccccc23)NC(=O)[C@H](CC(=O)O)NC(=O)[C@H](CCC(N)=O)NC(=O)[C@H](Cc2cn(C)c3ccccc23)NC(=O)[C@H](C(C)C)NC1=O
B5: Peptide 12: mIle-Ile-[Cys-Val-Trp(Me)-Gln-Asp-Trp-Sar-Ala-His-Arg-Cys]-mIle-NH2 (peptide)
peptide: IICVWQDWGAHRCI
modifications: mIle (N-methyl-Ile; printed 'mlle') at Xaa0; Trp(Me) at position 4; Sar at position 8; mIle at position 13; C-terminal -NH2; cyclic via Cys2-Cys12 disulfide (compstatin position numbering)
B6: Peptide 5: Phe-Ile-[Cys-Val-Trp(Me)-Gln-Asp-Trp-Sar-Ala-His-Arg-Cys]-mIle-NH2 (peptide)
peptide: FICV[Trp(1-Me)]QDW[Sar]AHRC[NMeI]-NH2
modifications: disulfide 3-13; N-terminus assumed
SMILES: CC[C@H](C)[C@H](NC(=O)[C@@H](N)Cc1ccccc1)C(=O)N[C@H]1CSSC[C@@H](C(=O)N(C)[C@H](C(N)=O)[C@@H](C)CC)NC(=O)[C@H](CCCNC(=N)N)NC(=O)[C@H](Cc2c[nH]cn2)NC(=O)[C@H](C)NC(=O)CN(C)C(=O)[C@H](Cc2c[nH]c3ccccc23)NC(=O)[C@H](CC(=O)O)NC(=O)[C@H](CCC(N)=O)NC(=O)[C@H](Cc2cn(C)c3ccccc23)NC(=O)[C@H](C(C)C)NC1=O
B7: Peptide 8: Thr-Ile-[Cys-Val-Trp(Me)-Gln-Asp-Trp-Sar-Ala-His-Arg-Cys]-mIle-NH2 (peptide)
peptide: TICV[Trp(1-Me)]QDW[Sar]AHRC[NMeI]-NH2
modifications: disulfide 3-13; N-terminus assumed
SMILES: CC[C@H](C)[C@H](NC(=O)[C@@H](N)[C@@H](C)O)C(=O)N[C@H]1CSSC[C@@H](C(=O)N(C)[C@H](C(N)=O)[C@@H](C)CC)NC(=O)[C@H](CCCNC(=N)N)NC(=O)[C@H](Cc2c[nH]cn2)NC(=O)[C@H](C)NC(=O)CN(C)C(=O)[C@H](Cc2c[nH]c3ccccc23)NC(=O)[C@H](CC(=O)O)NC(=O)[C@H](CCC(N)=O)NC(=O)[C@H](Cc2cn(C)c3ccccc23)NC(=O)[C@H](C(C)C)NC1=O
B8: Peptide 19: Ac-Trp-[Cys-Val-Trp(Me)-Gln-Asp-Trp-Sar-Ala-His-Arg-Cys]-mIle-NH2 (peptide)
peptide: Ac-WCV[Trp(1-Me)]QDW[Sar]AHRC[NMeI]-NH2
modifications: disulfide 2-12
SMILES: CC[C@H](C)[C@@H](C(N)=O)N(C)C(=O)[C@@H]1CSSC[C@H](NC(=O)[C@H](Cc2c[nH]c3ccccc23)NC(C)=O)C(=O)N[C@@H](C(C)C)C(=O)N[C@@H](Cc2cn(C)c3ccccc23)C(=O)N[C@@H](CCC(N)=O)C(=O)N[C@@H](CC(=O)O)C(=O)N[C@@H](Cc2c[nH]c3ccccc23)C(=O)N(C)CC(=O)N[C@@H](C)C(=O)N[C@@H](Cc2c[nH]cn2)C(=O)N[C@@H](CCCNC(=N)N)C(=O)N1
B9: Peptide 1: Me-Ile-[Cys-Val-Trp(Me)-Gln-Asp-Trp-Sar-Ala-His-Arg-Cys]-mIle-NH2 (peptide)
peptide: Me-ICVWQDW[Sar]AHRC[NMeI]-NH2
modifications: disulfide 2-12; not fully specified (residue 4); printed as Me-Ile-[Cys-Val-Trp(Me)-Gln-Asp-Trp-Sar-Ala-His-Arg-Cys]-mIle-NH2
B10: Compstatin 30 (Cp30): Sar-Ile-[Cys-Val-Trp(Me)-Gln-Asp-Trp-Sar-Ala-His-Arg-Cys]-mIle-NH2 (peptide)
peptide: GICVWQDWGAHRCI
modifications: Sar (N-methyl-Gly) at Xaa0 (N-terminus); Trp(Me) at position 4; Sar at position 8; mIle at position 13; C-terminal -NH2; cyclic via Cys2-Cys12 disulfide (compstatin position numbering)
B11: Peptide 10: mPhe-Ile-[Cys-Val-Trp(Me)-Gln-Asp-Trp-Sar-Ala-His-Arg-Cys]-mIle-NH2 (peptide)
peptide: FICVWQDWGAHRCI
modifications: mPhe (N-methyl-Phe) at Xaa0; Trp(Me) at position 4; Sar at position 8; mIle at position 13; C-terminal -NH2; cyclic via Cys2-Cys12 disulfide (compstatin position numbering)
B12: Peptide 13: mAla-Ile-[Cys-Val-Trp(Me)-Gln-Asp-Trp-Sar-Ala-His-Arg-Cys]-mIle-NH2 (peptide)
peptide: AICVWQDWGAHRCI
modifications: mAla (N-methyl-Ala) at Xaa0; Trp(Me) at position 4; Sar at position 8; mIle at position 13; C-terminal -NH2; cyclic via Cys2-Cys12 disulfide (compstatin position numbering)
B13: Peptide 6: Arg-Ile-[Cys-Val-Trp(Me)-Gln-Asp-Trp-Sar-Ala-His-Arg-Cys]-mIle-NH2 (peptide)
peptide: RICV[Trp(1-Me)]QDW[Sar]AHRC[NMeI]-NH2
modifications: disulfide 3-13; N-terminus assumed
SMILES: CC[C@H](C)[C@H](NC(=O)[C@@H](N)CCCNC(=N)N)C(=O)N[C@H]1CSSC[C@@H](C(=O)N(C)[C@H](C(N)=O)[C@@H](C)CC)NC(=O)[C@H](CCCNC(=N)N)NC(=O)[C@H](Cc2c[nH]cn2)NC(=O)[C@H](C)NC(=O)CN(C)C(=O)[C@H](Cc2c[nH]c3ccccc23)NC(=O)[C@H](CC(=O)O)NC(=O)[C@H](CCC(N)=O)NC(=O)[C@H](Cc2cn(C)c3ccccc23)NC(=O)[C@H](C(C)C)NC1=O
B14: Peptide 11: mVal-Ile-[Cys-Val-Trp(Me)-Gln-Asp-Trp-Sar-Ala-His-Arg-Cys]-mIle-NH2 (peptide)
peptide: VICVWQDWGAHRCI
modifications: mVal (N-methyl-Val) at Xaa0; Trp(Me) at position 4; Sar at position 8; mIle at position 13; C-terminal -NH2; cyclic via Cys2-Cys12 disulfide (compstatin position numbering)

Biological target: C3b (biotinylated, captured site-specifically on a streptavidin chip) (UniProt P01024)
Experiment: SPR on immobilised C3b

fold weaker binding affinity than peptide 4 [fold] | Binder
3 | B1

Biological target: C3b (biotinylated, captured site-specifically on a streptavidin chip) (UniProt P01024)
Experiment: SPR, single-cycle kinetics on immobilised C3b (method of Example 2)

Kd [nM] | koff [s⁻¹] | kon [M⁻¹ s⁻¹] | Binder
1.5 | 0.0028 | 2e+06 | [dY]ICV[Trp(1-Me)]QNW[Sar]AH[Orn]C[NMeI]-NH2 (disulfide 3-13) [Cp40 (11Orn 6Asn)]
0.8 | 0.002 | 2.5e+06 | [dY]ICV[Trp(1-Me)]QDW[Sar]AH[Orn]C[NMeI]-NH2 (disulfide 3-13) [Cp40 (11Orn)]
3 | 0.0028 | 900000 | B2

Biological target: C3b (biotinylated, captured site-specifically on a streptavidin chip) (UniProt P01024)
Experiment: SPR (Biacore 3000), single-cycle kinetics, biotinylated C3b on streptavidin chip, peptide as analyte, 1:1 Langmuir fit

Kd [nM] | koff [s⁻¹] | kon [M⁻¹ s⁻¹] | Binder
2.5 | 0.0029 | 1.2e+06 | B3
2.2 | 0.0036 | 1.6e+06 | B4
2.4 | 0.0037 | 1.6e+06 | B5
1.6 | 0.0033 | 2.1e+06 | B6
2.6 | 0.0031 | 1.2e+06 | B7
0.5 | 0.0017 | 3.8e+06 | B8
18.6 | 0.0248 | 1.3e+06 | B9
1.6 | 0.0029 | 1.9e+06 | B10
1.8 | 0.0029 | 1.6e+06 | B11
2.5 | 0.0034 | 1.4e+06 | B12
1.7 | 0.0029 | 1.7e+06 | B13
1.9 | 0.0035 | 1.8e+06 | B14
3.5 | 0.0073 | 2.1e+06 | B1
